Measured values from US12611443B2, “Methods and compositions related to therapeutic peptides for cancer therapy” (THE UNIVERSITY OF CHICAGO, priority 2018, dated 2026).

Experiments:
cancer cells [1] = assay: ELANE internalization by cancer cells and effect of endocytosis inhibitor; assay type: cell-based
Procedure: (§1) FIGS. 1A-1K. ELANE cleaves CD95 to selectively kill cancer cells. (A): Heatmap summary of ELANE's effects on survival, stress, and apoptosis pathways in cancer cells and healthy cells. (B-C): Cancer cells were treated with ELANE (100 nM) and CD95 cleavage was assessed by western blotting using anti-N-terminal (B) or anti-C-terminal antibodies (C). *, lower molecular weight CD95 fragment. (D): Cancer cells or non-cancer cells were transduced to overexpress CD95 proteins, and effects on ELANE-mediated apoptosis were quantified by ANXAS at 30 min. n=2/group. See FIG. 1I for transduction and CD95 over-expression. (E): Cleavage of recombinant human CD95 N-terminal (aa 1-173) or C-terminal (aa 212-335) proteins by ELANE was assessed by SDS-PAGE and Coomassie blue staining. (F): Bands from (E) were digested with trypsin and analyzed by mass spectrometry to identify putative ELANE cleavage sites (i.e., peptides with non-tryptic ends). Major non-tryptic peptides were quantified by ion chromatograms. (G): Schematic of ELANE cleavage sites in CD95. […] (H): Cleavage of recombinant peptides corresponding to aa 214-231 and aa 317-335 in CD95 by ELANE was monitored by mass spectrometry. (I): Cancer cells or non-cancer cells were treated with fluorescein-labeled ELANE for 10 min and uptake was visualized by immunofluorescence. (J): ELANE catalytic activity in cancer cell lysates following exposure to ELANE for 30 mins in the presence and absence of Dynasore (60 μM endocytosis inhibitor). Effect of Dynasore on cancer cell killing capability of ELANE (measured by calcein-AM). n=6/group. (K): Cancer cells or non-cancer cells were transduced to overexpress various CD95 proteins, and cell viability in the absence of ELANE was determined by calcein-AM. n=10/group. *, p<0.05 Student's t-test.

[2] = test system: tumors (MDA-MB-231, A549, MEL888, M1, 4195, E0771, LLC1, B16F10); assay: Intra-tumoral treatment of tumor models (xenograft, PDX, syngeneic); assay type: in vivo, mice; conditions: E0771 TNBC model, IT, 12 μg/day
Procedure: Tumor inoculation and treatment. MDA-MB-231 cells (2×10^6), A549 cells (2×10^6) with Matrix Type 3), or MEL888 cells (2×10^6 with Matrix Type 3) were injected into athymic nude mice (Charles River); M1 or 4195 cells (50,000) were injected into NOD.SCID mice (JAX); and E0771 cells (0.5×10^6), LLC1 cells (0.5×10^6), or B16F10 cells (1×10^6), were injected into C57BL/6 mice (JAX). For TNBC models (MDA-MB-231, E0771, M1, 4195), cells were injected into the 4th mammary fat pad of the right ventral side. For all other models (A549, LLC1, MEL888, B16F10), cells were injected into the flank. Once tumors reached ˜100 mm^3, ELANE or PMSF-ELANE (11.6 μg/100 μL), or neutrophil medias or HSA (50 μg/100 μL) were delivered IT once/day for 5 days. Tumor volume was assessed by calipers, and experiments were terminated when tumor volume in control mice reached >1000 mm^3.
Tumor immunohistochemistry. Tumors were fixed in 4% paraformaldehyde in PBS for 24 h, embedded in paraffin blocks, and sectioned (5 μm). Slides were stained with cCASP3 (9661) and cPARP (9625) antibodies from Cell Signaling Technology. Signals were developed using the VECTASTAIN ABC kit (Vector Laboratories) or fluorescently-labeled secondary antibodies (melanoma models). For the TUNEL assay, staining was performed with the DeadEnd™ colorimetric or fluorometric TUNEL systems (Promega). Cell nuclei were labeled with haematoxylin or Hoechst 33342 (ThermoFisher Scientific). Images were obtained with a Nikon Eclipse Ti2 microscope and analyzed using NIS-Elements software.

[3] = test system: human/murine cancer cells; assay: In vitro cell viability of cancer cells (calcein-AM, CASP3, ANXA5); assay type: cell-based; conditions: catalytic inactivation confirmed
Source text: Cell lines. The ovarian cancer cell lines—CAOV3, OVCAR3, OVCAR4, OVCAR5, A2780, A2780/CP70, HeyA8, TykNu, SKOV3, ID8, and ID8p53-/- were a gift from Dr. Ernst Lengyel, University of Chicago. The breast cancer cell lines—MDA-MB-231, MDA-MB-231.BM1, MCF-7, M6C, E0771, and E0771.LMB were a gift from Dr. Marsha Rosner, University of Chicago. The colon carcinoma cell line RKO, glioblastoma cancer cell line T98G, osteosarcoma cell lines U-2OS and Saos-2, and the hepatocellular carcinoma cell line HepG2 were a gift from Dr. Kay McLeod, University of Chicago. The lung cancer cell line NCI-H552 was a gift from Dr. Stephanie Huang, University of Chicago, and A549 and LLC1 cells were purchased from ATTC. The melanoma cell lines—B16F10, Mel888, Mel1106, and SK-MEL-28 cells were a gift from Dr. Thomas Gajewski, University of Chicago. The pancreatic cancer cell line PANC1 was a gift from Dr. Yamuna Krishnan, University of Chicago. The leukemia cell line K562 was a gift from Dr. Amittha Wickrema, University of Chicago.
The prostate cancer cell lines—CWR22Rv1, LAPC4, and LNCaP were a gift from Dr. Donald Vander Griend, University of Chicago. The neuroblastoma cell lines—SK-N-BE(2) and NBL-WN cells were a gift from Dr. Lucy Godley, University of Chicago.
Neutrophil media collections. Freshly isolated human or murine neutrophils were plated in serum-free DMEM for 24 h. Conditioned media was collected, spun at 500×g for 5 min, and media protein levels were determined with a Bradford assay (Biorad).
PMN media manipulations. For boiling, PMN media was boiled at 95° C. for 5 min and spun at 15,000×g for 10 min to remove precipitated proteins. For dialysis, PMN media was placed into a Slide-a-Lyzer™ cassette (3.5 kDa cutoff, ThermoFisher Scientific) and dialyzed against 2×4L of PBS at 4° C. for 4 h. For PMSF-inactivation, PMN media was treated with PMSF (1 mM, Sigma) or A1AT (42 nM, Athens Research & Technology) and incubated at room temperature for up to 2 h. Residual PMSF was eliminated with a PD-10 desalting column (GE Healthcare Life). Inhibition of ELANE catalytic activity was confirmed using a chromogenic substrate activity assay (see below). For serum-spiking experiments, human, mouse, or fetal bovine serum (1% or 10%) was added to PMN media prior to or after exposing cancer cells. For immune-depletion studies, ELANE or ECP were immunoprecipitated using anti-ELANE (N2C3, GeneTx) or anti-ECP (MB S2535165, MyBioSource) coupled to Pierce™ Protein A/G Magnetic Beads (ThermoFisher Scientific).
(§2) In vitro cell viability assays. […] Luminescence was measured using a Victor X3 luminometer (PerkinElmer).

MDA-MB-231 cells = assay: Doxycycline-inducible Tet-on expression of C or C1-2 in MDA-MB-231 cells; assay type: cell-based, human; conditions: Tet-on MDA-MB-231, doxycycline 0.2 or 2 μg/mL, 72 h, Calcein AM
Procedure: FIG. 4 Inducible Expression System. Scheme of doxycycline inducible Tet-on system to express either C (aa. 157-335) or C1-2 (aa. 221-331). C1-2 (DD containing fragment) upon addition of doxycycline (both in vitro and in vivo).
FIG. 5 Confirmation of C1-2 expression and cancer cell selective killing. (A) Tet-on C or C1-2 transduced MDA-MB-231 cells were treated with 2 μg/mL doxycycline (2 μg/mL) for 24 h. Cell lysates were collected for western blot. Confirming the expression of C or C1-2 expression. (B) Tet-on C or C1-2 transduced MDA-MB-231 cells were treated with 0.2 or 2 μg/mL doxycycline for 72 h. Cell viability was measured by Calcein AM. […] (C) Tet-on C1-2 transduced MCF10A cells were treated with 2 μg/mL doxycycline. Cell viability was measured at various time points by Calcein AM.
FIG. 6 In vitro testing MDA-MB-231 cell death post C1-2 induction. (A) Various single colony of Tet-on C1-2 transduced MDA-MB-231 cells were treated with 2 μg/mL doxycycline (2 μg/mL) for 72 h. Cell viability was measured by Calcein AM. Different colonies have different susceptibility of death post C1-2 induction. (B) C1-2 expression of various single colony of Tet-on C1-2 transduced MDA-MB-231 cells post doxycycline treatment were measured by western blot (C), and the level at 24 h was correlated with % death (normalized by full length). […] (C) Immunoblot of C1-2 and full length (FL) CD95 expression for various colony.

[4] = test system: human and murine cancer cells; assay: CD95 overexpression, ELANE-mediated apoptosis (ANXA5); assay type: cell-based; conditions: ELANE 40 nM, ANXA5 at 30 min
Procedure: FIGS. 2A-2D Overexpressing CD95 proteins accelerates cancer cell killing by ELANE. Polycistronic adenoviral vectors were prepared to express the human and mouse CD95 sequences followed by the Encephalomyocarditis virus (EMCV) internal ribosome entry site and dTomato sequence under the control of the cytomegalovirus (CMV) promoter. Human and murine cancer cells or non-cancer cells were transduced to over-express full-length CD95, N-terminal CD95 (human: aa 1-209; mouse: aa 1-204), or C-terminal CD95 (human: aa 212-335; mouse: aa 204-327). (A): Transduction efficiency quantified by dTomato (Left). CD95 levels in dTomato− and dTomato+ cells quantified by geometric mean (MFI) (Middle). ANXA5 levels in dTomato− and dTomato+ cells 30 min after treatment with ELANE (40 nM) (Right). Representative data for A549 cells are shown. (B-C): Quantification of transduction efficiency (B) and relative CD95 overexpression (C) for cancer cells and non-cancer cells. (D): Quantification of ANXA5 levels following ELANE treatment (40 nM, 30 min) for mouse cancer cell lines (E0771, B16F10). *, p<0.05 Student's t-test.
as §2
(§3) CD95 overexpression studies. Polycistronic adenoviral vectors were prepared to express the human and mouse CD95 sequences followed by the Encephalomyocarditis virus (EMCV) internal ribosome entry site and dTomato sequence under the control of the cytomegalovirus (CMV) promoter (VectorBuilder). Human and murine cancer cells or normal or non-cancer cells were transduced to over-express full-length CD95, N-terminal CD95 (human: aa 1-209; mouse: aa 1-204), C-terminal CD95 (human: aa 212-335; mouse: aa 204-327), or C-terminal CD95 that mimicked ELANE cleavage at site 1 (human: aa 221-335), site 2 (human: aa 212-331), or both sites (aa 221-331). Cancer cells or normal or non-cancer cells were transduced with adenoviruses at an MOI of 50-250 depending on cell type, and expression of dTomato and CD95 (human: 558814; mouse, mouse: 565130, BD Biosciences) were confirmed by flow cytometry. A vector encoding GFP (Vector Builders) was used as a control.

cancer cells [5] = assay: CD95 protein overexpression in cancer cells, viability in absence of ELANE (calcein-AM); assay type: cell-based, human; conditions: transient overexpression
Procedure: as §1, §2, §3

## O=C(N/N=C/c1ccc(O)c(O)c1)c1cc2ccccc2cc1O [Dynasore]
Cancer cells [1]; Dynasore
  effect on PMN media-mediated killing: protected cancer cells from PMN media-mediated killing
Cancer cells [1]; Dynasore 60 μM
  effect on ELANE uptake: attenuated ELANE uptake
  effect on ELANE-induced apoptosis of cancer cells: protected cancer cells from apoptosis

B1: PMSF-ELANE: ELANE inactivated with PMSF (or A1AT) (protein, UniProt P08246 30-267, looked up)
Neutrophil elastase: IVGGRRARPHAWPFMVSLQLRGGHFCGATLIAPNFVMSAAHCVANVNVRAVRVVLGAHNLSRREPTRQVFAVQRIFENGYDPVNLLNDIVILQLNGSATINANVQVAQLPAQGRRLGNGVQCLAMGWGLLGRNRGIASVLQELNVTVVTSLCRRSNVCTLVRGRQAGVCFGDSGSPLVCNGLIHGIASFVRGGCASGLYPDAFAPVAQFVNWIDSIIQRSEDNPCPHPRDPDPASRTH
modifications: PMSF-inactivated
[2]
  therapeutic benefit, dose finding: did not produce unexpected worsening
[3]
  cancer cell killing after inactivation with PMSF or A1AT: could no longer kill cancer cells

B2: fluorescein-labeled ELANE: fluorescein-labeled ELANE used for uptake (protein, UniProt P08246 30-267, looked up)
Neutrophil elastase: IVGGRRARPHAWPFMVSLQLRGGHFCGATLIAPNFVMSAAHCVANVNVRAVRVVLGAHNLSRREPTRQVFAVQRIFENGYDPVNLLNDIVILQLNGSATINANVQVAQLPAQGRRLGNGVQCLAMGWGLLGRNRGIASVLQELNVTVVTSLCRRSNVCTLVRGRQAGVCFGDSGSPLVCNGLIHGIASFVRGGCASGLYPDAFAPVAQFVNWIDSIIQRSEDNPCPHPRDPDPASRTH
modifications: fluorescein label
notes: fluorescein-labeled ELANE used for uptake
Cancer cells [1]; 10 min, immunofluorescence
  uptake by cancer cells: rapidly internalized

B3: C peptide: C-terminal CD95 peptide containing both cleavage sites (aa. 212-335); Tet-on C printed as aa. 157-335 (protein)
chain: SPTLNPETVAINLSDVDLSKYITTIAGVMTLSQVKGFVRKNGVNEAKIDEIKNDNVQDTAEQKVQLLRNWHQLHGKKEAYDTLIKDLKKANLCTLAEKIQTIILKDITSDSENSNFRNEIQSLV
MDA-MB-231 cells
  cell death/apoptosis on doxycycline-induced expression: did not
MDA-MB-231 cells; listed as C
  cell death/apoptosis on doxycycline-induced expression: not C caused MDA-MB-231 cell death
[4]
  effect of overexpression on ELANE-mediated killing: accelerated ELANE-mediated killing in human cancer cells
[4]; listed as aa. 212-335 of SEQ ID NO:1
  effect of overexpression on ELANE-mediated killing: accelerated ELANE-mediated killing in both human and murine cancer cells
Cancer cells [5]
  cancer cell death/toxicity on expression in the absence of ELANE: not toxic
